Measurements taken from article PMC5113810.

T1: DNA polymerase kappa core (hpol κ19-536) (Homo sapiens, UniProt Q9UBT6 19-536)
T1 sequence: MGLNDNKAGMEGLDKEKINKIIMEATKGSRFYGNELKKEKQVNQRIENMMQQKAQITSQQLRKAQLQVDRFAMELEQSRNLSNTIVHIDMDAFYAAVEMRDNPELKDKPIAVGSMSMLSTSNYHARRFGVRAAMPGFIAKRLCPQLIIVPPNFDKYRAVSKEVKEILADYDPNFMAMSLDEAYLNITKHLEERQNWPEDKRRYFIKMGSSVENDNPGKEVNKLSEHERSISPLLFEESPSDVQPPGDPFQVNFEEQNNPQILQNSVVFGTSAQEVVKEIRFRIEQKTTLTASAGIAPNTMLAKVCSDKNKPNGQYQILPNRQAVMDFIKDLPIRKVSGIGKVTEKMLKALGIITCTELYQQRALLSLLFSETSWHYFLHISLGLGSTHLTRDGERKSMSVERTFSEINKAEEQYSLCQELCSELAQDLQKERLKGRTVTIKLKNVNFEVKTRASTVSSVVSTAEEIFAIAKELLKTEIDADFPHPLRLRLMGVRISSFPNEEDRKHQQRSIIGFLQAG

B1: 11/28-mer non-G4 DNA (mixed)
DNA 1: ATCCTCCCCTA
DNA 2: TATGTGACTATGCTGGGTAGGGGAGGAT
B2: 11/28-mer G4 DNA (mixed)
DNA 1: ATCCTCCCCTA
DNA 2: TGGGTGGGTAGGGTGGGTAGGGGAGGAT

Target: T1, DNA polymerase kappa core (hpol κ19-536)
Assay: fluorescence polarization

Binder	Kd [nM]
B1	86
B2	15
